IntAct's records for PubMed 20018686

B1: Serine/threonine-protein kinase BIK1 (Arabidopsis thaliana (Mouse-ear cress)), O48814 (parent)
chain: MGSCFSSRVKADIFHNGKSSDLYGLSLSSRKSSSTVAAAQKTEGEILSSTPVKSFTFNELKLATRNFRPDSVIGEGGFGCVFKGWLDESTLTPTKPGTGLVIAVKKLNQEGFQGHREWLTEINYLGQLSHPNLVKLIGYCLEDEHRLLVYEFMQKGSLENHLFRRGAYFKPLPWFLRVNVALDAAKGLAFLHSDPVKVIYRDIKASNILLDADYNAKLSDFGLARDGPMGDLSYVSTRVMGTYGYAAPEYMSSGHLNARSDVYSFGVLLLEILSGKRALDHNRPAKEENLVDWARPYLTSKRKVLLIVDNRLDTQYLPEEAVRMASVAVQCLSFEPKSRPTMDQVVRALQQLQDNLGKPSQTNPVKDTKKLGFKTGTTKSSEKRFTQKPFGRHLV
B2: Serine/threonine-protein kinase BIK1 (Arabidopsis thaliana (Mouse-ear cress)), O48814 (parent)
chain: B1 chain
partner: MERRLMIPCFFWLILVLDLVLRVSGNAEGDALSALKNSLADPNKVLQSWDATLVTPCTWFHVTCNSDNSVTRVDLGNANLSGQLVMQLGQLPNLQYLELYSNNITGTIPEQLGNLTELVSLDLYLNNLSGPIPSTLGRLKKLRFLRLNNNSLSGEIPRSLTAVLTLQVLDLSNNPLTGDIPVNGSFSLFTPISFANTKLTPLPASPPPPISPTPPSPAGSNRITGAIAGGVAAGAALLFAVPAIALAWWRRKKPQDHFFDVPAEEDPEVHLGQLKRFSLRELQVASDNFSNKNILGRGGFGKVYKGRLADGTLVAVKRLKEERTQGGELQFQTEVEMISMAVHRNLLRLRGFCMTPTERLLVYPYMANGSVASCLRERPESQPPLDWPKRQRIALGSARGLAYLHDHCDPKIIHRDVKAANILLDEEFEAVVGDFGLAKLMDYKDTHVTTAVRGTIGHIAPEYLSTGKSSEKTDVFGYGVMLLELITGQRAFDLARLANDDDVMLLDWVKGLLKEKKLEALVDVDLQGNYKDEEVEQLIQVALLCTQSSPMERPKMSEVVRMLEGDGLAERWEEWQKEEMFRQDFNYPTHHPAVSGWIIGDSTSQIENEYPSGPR

Variants of: B1
Settings: with fls2_arath FLS2, Q9FL28
Sequence of fls2_arath FLS2, Q9FL28 (Q9FL28 whole entry): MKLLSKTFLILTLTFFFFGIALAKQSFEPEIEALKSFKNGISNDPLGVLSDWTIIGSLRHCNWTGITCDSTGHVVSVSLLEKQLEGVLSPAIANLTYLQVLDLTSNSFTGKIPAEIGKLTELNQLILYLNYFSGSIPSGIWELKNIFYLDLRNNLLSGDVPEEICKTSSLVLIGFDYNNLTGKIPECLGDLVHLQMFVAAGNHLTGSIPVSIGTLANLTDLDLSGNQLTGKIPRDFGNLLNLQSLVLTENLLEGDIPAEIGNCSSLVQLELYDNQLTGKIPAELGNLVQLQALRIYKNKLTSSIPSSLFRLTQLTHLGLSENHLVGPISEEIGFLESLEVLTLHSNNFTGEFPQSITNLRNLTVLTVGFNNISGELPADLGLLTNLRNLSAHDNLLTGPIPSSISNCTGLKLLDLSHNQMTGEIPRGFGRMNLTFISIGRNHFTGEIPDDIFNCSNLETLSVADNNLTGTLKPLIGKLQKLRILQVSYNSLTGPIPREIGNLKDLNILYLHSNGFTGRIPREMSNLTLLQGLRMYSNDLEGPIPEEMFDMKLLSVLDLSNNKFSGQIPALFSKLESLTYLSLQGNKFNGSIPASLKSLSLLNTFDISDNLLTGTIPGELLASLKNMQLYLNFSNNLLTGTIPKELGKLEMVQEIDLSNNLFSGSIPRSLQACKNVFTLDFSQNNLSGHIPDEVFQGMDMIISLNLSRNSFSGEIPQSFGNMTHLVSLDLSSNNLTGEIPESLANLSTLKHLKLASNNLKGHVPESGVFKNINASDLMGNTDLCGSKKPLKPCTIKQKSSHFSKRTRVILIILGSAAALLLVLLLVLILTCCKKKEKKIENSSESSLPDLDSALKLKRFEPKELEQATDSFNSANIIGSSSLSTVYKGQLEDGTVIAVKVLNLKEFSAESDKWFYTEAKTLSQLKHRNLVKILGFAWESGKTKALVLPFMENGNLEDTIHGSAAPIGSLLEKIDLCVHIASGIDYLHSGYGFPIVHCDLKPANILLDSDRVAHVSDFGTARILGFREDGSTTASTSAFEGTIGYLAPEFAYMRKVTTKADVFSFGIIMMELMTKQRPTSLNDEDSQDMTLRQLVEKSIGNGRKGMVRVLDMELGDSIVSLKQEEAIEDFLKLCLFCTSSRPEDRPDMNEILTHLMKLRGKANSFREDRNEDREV

| effect of a mutation on the interaction | Variant |
| --- | --- |
| disrupting interaction | T237A |

Variants of: B2
Settings: with bak1_arath BAK1, Q94F62

| effect of a mutation on the interaction | Variant |
| --- | --- |
| disrupting interaction | T237A |
